This note sets out measurements from paper PMC8836349, “Characterization of adenine phosphoribosyltransferase (APRT) activity in Trypanosoma brucei brucei: Only one of the two isoforms is kinetically active” (PLoS Neglected Tropical Diseases, 2022).

T1: APRT1 (TbbAPRT1) (Trypanosoma brucei, UniProt Q57V32)
T1 construct: gene Tb07.43M14.180; full-length ORF, codon optimized, expressed in Pichia pastoris; His6/mCherry tag removed with TEV protease; homodimer
T1 sequence (Q57V32 1-235): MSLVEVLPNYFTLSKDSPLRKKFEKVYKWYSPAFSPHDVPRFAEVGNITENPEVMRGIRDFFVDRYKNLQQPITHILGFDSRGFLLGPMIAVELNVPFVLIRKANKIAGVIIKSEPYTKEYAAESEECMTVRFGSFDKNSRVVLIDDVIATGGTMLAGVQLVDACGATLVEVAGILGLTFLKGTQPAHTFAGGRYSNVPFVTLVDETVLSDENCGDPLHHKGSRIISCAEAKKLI

B1: APRT2 (Trypanosoma brucei brucei TREU927) (protein)
chain: MSQYDAILTERHPHHFTLADTHPLAKELHANIFGESDLTHANCAHVYDISSLTEKPALFRKVIEFLKCRYETMGDTGPTHIIGVESRGYIIGAPLAVALGIPFVTARVTKRFPSSFVPEGDDLKYLPMSRSIRNDSIPPRARVLIVDDFIGTGSTMLAALRLADIVAAQVVEVLTVCDVASLGGIKIIRESDDEMFKETPIFTLIHFKLSPREAEEQLEFVNSYITRSRL
notes: full-length ORF, codon optimized, expressed in Pichia pastoris; N- or C-terminal His6/mCherry tag removed with TEV protease; weak dimer
B2: APRT2-Ntag (Trypanosoma brucei brucei putative adenine phosphoribosyltransferase 2, Tb927.7.1790, expressed from pPICZ-Ntag) (natural protein, UniProt Q57V31 1-230, looked up)
chain: B1 chain
notes: APRT2 of Trypanosoma brucei brucei, Tb927.7.1790, UniProt Q57V31; the ORF, codon optimised for P. pastoris, cloned into pPICZ-Ntag; Tags removed with TEV protease; measured native-MS mass 25,860 Da (theoretical 25,853 Da); also called TbbAPRT2; source: Pichia pastoris strain smPP, purified (Ni-NTA, TEV cleavage, second Ni-NTA); not shown: His6, N-terminal, cleaved; mCherry, N-terminal, cleaved
B3: APRT2-Ctag (Trypanosoma brucei brucei putative adenine phosphoribosyltransferase 2, Tb927.7.1790, expressed from pPICZ-Ctag) (natural protein, UniProt Q57V31 1-230, looked up)
chain: B1 chain
notes: APRT2 of Trypanosoma brucei brucei, Tb927.7.1790, UniProt Q57V31; the ORF, codon optimised for P. pastoris, cloned into pPICZ-Ctag; Tags removed with TEV protease; measured native-MS mass 26,637 Da (theoretical 26,647 Da), so residues of the TEV site are likely left at the C-terminus; also called TbbAPRT2; source: Pichia pastoris strain smPP, purified (Ni-NTA, TEV cleavage, second Ni-NTA); not …
B4: APRT2 (Trypanosoma brucei brucei putative adenine phosphoribosyltransferase 2, Tb927.7.1790), expressed in P. pastoris, vector not told (natural protein, UniProt Q57V31 1-230, looked up)
chain: B1 chain
notes: APRT2 of Trypanosoma brucei brucei, Tb927.7.1790, UniProt Q57V31; the ORF, codon optimised for P. pastoris, cloned into a pPICZ vector; tags were removed with TEV protease; also called TbbAPRT2; source: Pichia pastoris strain smPP, purified (Ni-NTA, TEV cleavage, second Ni-NTA)
B5: Trypanosoma brucei brucei adenine phosphoribosyltransferase 1 (APRT1, Tb927.7.1780) (enzyme, UniProt Q57V32 1-235, looked up)
chain: T1 sequence (Q57V32 1-235)
notes: APRT1 of Trypanosoma brucei brucei, Tb927.7.1780, UniProt Q57V32; the ORF, codon optimised for P. pastoris, cloned into a pPICZ vector; tags were removed with TEV protease (tag-less APRT1); also called TbbAPRT1; source: Pichia pastoris strain smPP, purified (Ni-NTA, TEV cleavage, second Ni-NTA)

One data set concerns the target T1, APRT1 (TbbAPRT1). Kind of data set: coupled myokinase/pyruvate kinase/lactate dehydrogenase assay, NADH at […] nm. Type of data set: biochemical. The settings on record: read-out: Apparent inhibition parameters^b.
Substrate in data set [1]: Nc1ncnc2nc[nH]c12
Kind of data set: purified protein. Type of data set: biochemical, Trypanosoma brucei. Particulars: 100 mM HEPES pH 7.8, 25 mM MgCl2, room temperature.

Data set [2] concerns the molecule itself. In words: cross-linking; dimethyl suberimidate (DMS) 8.7 mM, 0.2 M triethanolamine pH 8.5, purified APRT at 17.8, 35, 69 or 140 ug mL^-1, RT, 5-8 hours; 12% SDS-PAGE, Coomassie Blue.
Data set [3] concerns the target B5. Kind of data set: cell-based or functional assay.
Data set [4] concerns the molecule itself. Kind of data set: SEC; Superdex 200 Increase 10/300 GL; 200 uL of APRT1 at 13.8 mg mL^-1 or APRT2 at 10.8 mg mL^-1; 50 mM HEPES pH 7.8, 300 mM NaCl, 50 mM L-arginine, 50 mM L-glutamate; column calibrated with standards of 1,350 to 670,000 Da.
Substrate in data set [5]: O=P(O)(O)OC[C@H]1O[C@H](OP(=O)(O)OP(=O)(O)O)[C@H](O)[C@@H]1O
Kind of data set: purified protein. Type of data set: biochemical, Trypanosoma brucei. Particulars: varied PRPP (10-250 μM) at fixed adenine 1-20 μM, 100 mM HEPES pH 7.8, 25 mM MgCl2, room temperature.

Setting [6] is: kinetic dissociation constant from free enzyme, varied adenine (1.5-50 μM) at fixed PRPP 25-150 μM.

Broadly, the Km is the substrate concentration at which the rate is half of its maximum. A word on the kcat: it is the number of substrate molecules converted per active site and unit of time at saturation. The term kcat/Km denotes the turnover number divided by the Michaelis constant. One may read the stoichiometry N as the number of molecules, sites or subunits per partner or assembly.

On to `Nc1ncnc2cc[nH]c12` [9-deazaadenine], for which the Ki at APRT1 (TbbAPRT1) worked out at 156 ± 21 µM.
Regarding B1, in “purified protein [1]” (adenine 50-500 μM, 1 mM PRPP), the Km amounted to 253 ± 4 µM, the kcat was determined as 0.003 ± 0.0002 s⁻¹ and the kcat/Km was determined as 12 ± 0.8 M⁻¹ s⁻¹.
Take B2: the “stoichiometry N” value in data set [2] is 2.
B3: the “stoichiometry N” value in data set [2] stood at 2.
Consider B4, for which the “fold decrease in AMP formation (APRT activity) of an equimolar mixture pre-incubated 4 hours on ice (100 nM APRT1: 100 nM APRT2) against 200 nM APRT1 alone and 100 nM APRT1 alone” value in data set [3] came out at 2 fold. In data set [4], the “stoichiometry N” value turned out to be 2.
In the case of B5, the “stoichiometry N” value in data set [2] is 2. Besides, in the data set “purified protein [1]” (setting [6]), the Km is 2.2 ± 0.7 µM and the kcat came out at 0.62 ± 0.02 s⁻¹. Moreover, in the data set “purified protein [5]”, the Km turned out to be 68 ± 11 µM, the kcat was 0.61 ± 0.04 s⁻¹ and the kcat/Km was determined as 9000 ± 1600 M⁻¹ s⁻¹.
